Reference: patent US20150344570A1 (published 2015)

T1: FcgRIIb (FcγRIIb) extracellular domain with C-terminal His tag (human, UniProt P31994 43-217)
T1 construct: extracellular domain; not shown: His tag attached to the C terminus
T1 sequence (looked up): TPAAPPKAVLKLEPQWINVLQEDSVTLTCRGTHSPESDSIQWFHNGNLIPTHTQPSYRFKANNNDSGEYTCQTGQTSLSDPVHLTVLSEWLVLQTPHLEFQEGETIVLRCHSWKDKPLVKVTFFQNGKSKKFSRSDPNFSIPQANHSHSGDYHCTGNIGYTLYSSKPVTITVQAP


Columns and labels:
Assay in all cases: SPR (Biacore); KD of H240-Kn061/H240-Hl071/L73-k0 divided by KD of the variant
[1] = biological target: T2, FcgRIIIa V (FcγRIIIa type V) extracellular domain with C-terminal His tag (human, UniProt P08637 17-208)
T2 construct: extracellular domain; also called FcγRIIIa V; not shown: His tag attached to the C terminus
T2 sequence (P08637 17-208 F176V limits assumed): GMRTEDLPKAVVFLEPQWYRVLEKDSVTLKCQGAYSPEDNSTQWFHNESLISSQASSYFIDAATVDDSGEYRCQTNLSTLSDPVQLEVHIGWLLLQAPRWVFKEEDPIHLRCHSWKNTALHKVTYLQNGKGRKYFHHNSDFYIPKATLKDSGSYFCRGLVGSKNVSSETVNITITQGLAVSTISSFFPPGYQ
Description: (§1) The antibodies were assessed for the binding to each FcgR. […] The resultant value was defined as relative KD, and used as an assessment indicator.
(§2) Analysis of interaction between objective antibody and the FcγR was carried out using Biacore T100 (GE Healthcare), Biacore T200, Biacore A100, and Biacore 4000. HBS-EP+ (GE Healthcare) was used as the running buffer, and the measurement temperature was set to 25° C. Chips produced by immobilizing the antigen peptide by the amine coupling method to a Series S sensor Chip CM5 (GE Healthcare), chips produced by allowing preliminarily biotinylated antigen peptides to interact with and immobilize onto a Series S Sensor Chip SA (certified) (GE Healthcare), chips produced by immobilizing Protein L (ACTIGEN, BioVision) to Series S Sencor Chip CM5 (GE Healthcare), or chips produced by immobilizing Protein A/G (Thermo Scientific) to Series S Sencor Chip CM5 (GE Healthcare) were used. Antibodies of interest were captured onto these chips, and allowed to interact to each FcγR diluted with running buffer.

[2] = biological target: T1, FcgRIIb (FcγRIIb) extracellular domain …
Description: as §1, §2

[3] = biological target: T3, FcgRIIIa F (FcγRIIIa type F) extracellular domain with C-terminal His tag (human, UniProt P08637 17-208)
T3 construct: extracellular domain; also called FcγRIIIa F; 3aF; not shown: His tag attached to the C terminus
T3 sequence (P08637 17-208): as the sequence (P08637 17-208 F176V limits assumed) above, with V160F counted along it
Description: as §1, §2

Row | relative KD [1] [ratio] | relative KD [2] [ratio] | relative KD [3] [ratio] | Binder
1 | 0.9 | 1 | 0.9 | H240-Kn061/H240-Hl071/L73-k0 variant with Y234S in H240-Kn061 (antibody, human IgG1, kappa, anti-epiregulin heterodimerized IgG1; also called H240-Kn061 Y234S) heavy 1: QDQLVQSGAEVKKPGASVKVSCKASGFNIKDTYIQWVRQAPGQGLEWMGRIDPLRKQTKYREKFEGRVTITADTSTNTAYMELSSLRSEDTAVYYCVRSGREFDYWGQGTLVTVSSASTKGPSVFPLAPSSKSTSGGTAALGCLVKDYFPEPVTVSWNSGALTSGVHTFPAVLQSSGLYSLSSVVTVPSSSLGTQTYICNVNHKPSNTKVDKKVEPKSCDKTHTCPPCPAPESYWGPSVFLFPPKPKDTLMISRTPEVTCVVVDVSDEDPEVKFNWYVDGVEVHNAKTKPREEQYNATYRVVSVLTVLHQDWLNGKEYKCKVSNKALPAPIEKTISKAKGQPREPQVCTLPPSRDELTKNQVSLWCLVKGFYPSDIAVEWESNGQPENNYKTTPPVLDSDGSFFLYSKLTVDKSRWQQGNVFSCSVMHEALHNHYTQKSLSLSP heavy 2: QDQLVQSGAEVKKPGASVKVSCKASGFNIKDTYIQWVRQAPGQGLEWMGRIDPLRKQTKYREKFEGRVTITADTSTNTAYMELSSLRSEDTAVYYCVRSGREFDYWGQGTLVTVSSASTKGPSVFPLAPSSKSTSGGTAALGCLVKDYFPEPVTVSWNSGALTSGVHTFPAVLQSSGLYSLSSVVTVPSSSLGTQTYICNVNHKPSNTKVDKKVEPKSCDKTHTCPPCPAPELLGGPSVFLFPPKPKDTLMISRTPEVTCVVVDVSHEDPEVKFNWYVDGVEVHNAKTKPREEQYNSTYRVVSVLTVLHQDWLNGKEYKCKVSNDALPMPIEETISKAKGQPREPQVYTLPPSRCELTKNQVSLSCAVKGFYPSDIAVEWESNGQPENNYKTTPPVLDSDGSFFLVSKLTVDKSRWQQGNVFSCSVMHEALHNHYTQKSLSLSP light: DIQMTQSPSSLSASVGDRVTITCRASQDIHKYIAWYQQKPGQAPRLLIQYTSTLQPGVPSRFSGSGSGTDYTFTISSLQPEDIATYYCLQYEQLRTFGGGTKVEIKRTVAAPSVFIFPPSDEQLKSGTASVVCLLNNFYPREAKVQWKVDNALQSGNSQESVTEQDSKDSTYSLSSTLTLSKADYEKHKVYACEVTHQGLSSPVTKSFNRGEC
2 | 3.2 | 0.8 | 2.2 | H240-Kn061/H240-Hl071/L73-k0 variant with Y235E in H240-Kn061 (antibody, human IgG1, kappa, anti-epiregulin heterodimerized IgG1; also called H240-Kn061 Y235E) heavy 1: QDQLVQSGAEVKKPGASVKVSCKASGFNIKDTYIQWVRQAPGQGLEWMGRIDPLRKQTKYREKFEGRVTITADTSTNTAYMELSSLRSEDTAVYYCVRSGREFDYWGQGTLVTVSSASTKGPSVFPLAPSSKSTSGGTAALGCLVKDYFPEPVTVSWNSGALTSGVHTFPAVLQSSGLYSLSSVVTVPSSSLGTQTYICNVNHKPSNTKVDKKVEPKSCDKTHTCPPCPAPEYEWGPSVFLFPPKPKDTLMISRTPEVTCVVVDVSDEDPEVKFNWYVDGVEVHNAKTKPREEQYNATYRVVSVLTVLHQDWLNGKEYKCKVSNKALPAPIEKTISKAKGQPREPQVCTLPPSRDELTKNQVSLWCLVKGFYPSDIAVEWESNGQPENNYKTTPPVLDSDGSFFLYSKLTVDKSRWQQGNVFSCSVMHEALHNHYTQKSLSLSP heavy 2: QDQLVQSGAEVKKPGASVKVSCKASGFNIKDTYIQWVRQAPGQGLEWMGRIDPLRKQTKYREKFEGRVTITADTSTNTAYMELSSLRSEDTAVYYCVRSGREFDYWGQGTLVTVSSASTKGPSVFPLAPSSKSTSGGTAALGCLVKDYFPEPVTVSWNSGALTSGVHTFPAVLQSSGLYSLSSVVTVPSSSLGTQTYICNVNHKPSNTKVDKKVEPKSCDKTHTCPPCPAPELLGGPSVFLFPPKPKDTLMISRTPEVTCVVVDVSHEDPEVKFNWYVDGVEVHNAKTKPREEQYNSTYRVVSVLTVLHQDWLNGKEYKCKVSNDALPMPIEETISKAKGQPREPQVYTLPPSRCELTKNQVSLSCAVKGFYPSDIAVEWESNGQPENNYKTTPPVLDSDGSFFLVSKLTVDKSRWQQGNVFSCSVMHEALHNHYTQKSLSLSP light: DIQMTQSPSSLSASVGDRVTITCRASQDIHKYIAWYQQKPGQAPRLLIQYTSTLQPGVPSRFSGSGSGTDYTFTISSLQPEDIATYYCLQYEQLRTFGGGTKVEIKRTVAAPSVFIFPPSDEQLKSGTASVVCLLNNFYPREAKVQWKVDNALQSGNSQESVTEQDSKDSTYSLSSTLTLSKADYEKHKVYACEVTHQGLSSPVTKSFNRGEC
3 | 1.5 | 1.2 | 1.3 | H240-Kn061/H240-Hl071/L73-k0 variant with Y235F in H240-Kn061 (antibody, human IgG1, kappa, anti-epiregulin heterodimerized IgG1; also called H240-Kn061 Y235F) heavy 1: QDQLVQSGAEVKKPGASVKVSCKASGFNIKDTYIQWVRQAPGQGLEWMGRIDPLRKQTKYREKFEGRVTITADTSTNTAYMELSSLRSEDTAVYYCVRSGREFDYWGQGTLVTVSSASTKGPSVFPLAPSSKSTSGGTAALGCLVKDYFPEPVTVSWNSGALTSGVHTFPAVLQSSGLYSLSSVVTVPSSSLGTQTYICNVNHKPSNTKVDKKVEPKSCDKTHTCPPCPAPEYFWGPSVFLFPPKPKDTLMISRTPEVTCVVVDVSDEDPEVKFNWYVDGVEVHNAKTKPREEQYNATYRVVSVLTVLHQDWLNGKEYKCKVSNKALPAPIEKTISKAKGQPREPQVCTLPPSRDELTKNQVSLWCLVKGFYPSDIAVEWESNGQPENNYKTTPPVLDSDGSFFLYSKLTVDKSRWQQGNVFSCSVMHEALHNHYTQKSLSLSP heavy 2: QDQLVQSGAEVKKPGASVKVSCKASGFNIKDTYIQWVRQAPGQGLEWMGRIDPLRKQTKYREKFEGRVTITADTSTNTAYMELSSLRSEDTAVYYCVRSGREFDYWGQGTLVTVSSASTKGPSVFPLAPSSKSTSGGTAALGCLVKDYFPEPVTVSWNSGALTSGVHTFPAVLQSSGLYSLSSVVTVPSSSLGTQTYICNVNHKPSNTKVDKKVEPKSCDKTHTCPPCPAPELLGGPSVFLFPPKPKDTLMISRTPEVTCVVVDVSHEDPEVKFNWYVDGVEVHNAKTKPREEQYNSTYRVVSVLTVLHQDWLNGKEYKCKVSNDALPMPIEETISKAKGQPREPQVYTLPPSRCELTKNQVSLSCAVKGFYPSDIAVEWESNGQPENNYKTTPPVLDSDGSFFLVSKLTVDKSRWQQGNVFSCSVMHEALHNHYTQKSLSLSP light: DIQMTQSPSSLSASVGDRVTITCRASQDIHKYIAWYQQKPGQAPRLLIQYTSTLQPGVPSRFSGSGSGTDYTFTISSLQPEDIATYYCLQYEQLRTFGGGTKVEIKRTVAAPSVFIFPPSDEQLKSGTASVVCLLNNFYPREAKVQWKVDNALQSGNSQESVTEQDSKDSTYSLSSTLTLSKADYEKHKVYACEVTHQGLSSPVTKSFNRGEC
4 | 1.5 | 0.9 | 1.8 | H240-Kn061/H240-Hl071/L73-k0 variant with Y235L in H240-Kn061 (antibody, human IgG1, kappa, anti-epiregulin heterodimerized IgG1; also called H240-Kn061 Y235L) heavy 1: QDQLVQSGAEVKKPGASVKVSCKASGFNIKDTYIQWVRQAPGQGLEWMGRIDPLRKQTKYREKFEGRVTITADTSTNTAYMELSSLRSEDTAVYYCVRSGREFDYWGQGTLVTVSSASTKGPSVFPLAPSSKSTSGGTAALGCLVKDYFPEPVTVSWNSGALTSGVHTFPAVLQSSGLYSLSSVVTVPSSSLGTQTYICNVNHKPSNTKVDKKVEPKSCDKTHTCPPCPAPEYLWGPSVFLFPPKPKDTLMISRTPEVTCVVVDVSDEDPEVKFNWYVDGVEVHNAKTKPREEQYNATYRVVSVLTVLHQDWLNGKEYKCKVSNKALPAPIEKTISKAKGQPREPQVCTLPPSRDELTKNQVSLWCLVKGFYPSDIAVEWESNGQPENNYKTTPPVLDSDGSFFLYSKLTVDKSRWQQGNVFSCSVMHEALHNHYTQKSLSLSP heavy 2: QDQLVQSGAEVKKPGASVKVSCKASGFNIKDTYIQWVRQAPGQGLEWMGRIDPLRKQTKYREKFEGRVTITADTSTNTAYMELSSLRSEDTAVYYCVRSGREFDYWGQGTLVTVSSASTKGPSVFPLAPSSKSTSGGTAALGCLVKDYFPEPVTVSWNSGALTSGVHTFPAVLQSSGLYSLSSVVTVPSSSLGTQTYICNVNHKPSNTKVDKKVEPKSCDKTHTCPPCPAPELLGGPSVFLFPPKPKDTLMISRTPEVTCVVVDVSHEDPEVKFNWYVDGVEVHNAKTKPREEQYNSTYRVVSVLTVLHQDWLNGKEYKCKVSNDALPMPIEETISKAKGQPREPQVYTLPPSRCELTKNQVSLSCAVKGFYPSDIAVEWESNGQPENNYKTTPPVLDSDGSFFLVSKLTVDKSRWQQGNVFSCSVMHEALHNHYTQKSLSLSP light: DIQMTQSPSSLSASVGDRVTITCRASQDIHKYIAWYQQKPGQAPRLLIQYTSTLQPGVPSRFSGSGSGTDYTFTISSLQPEDIATYYCLQYEQLRTFGGGTKVEIKRTVAAPSVFIFPPSDEQLKSGTASVVCLLNNFYPREAKVQWKVDNALQSGNSQESVTEQDSKDSTYSLSSTLTLSKADYEKHKVYACEVTHQGLSSPVTKSFNRGEC
